Changes are numbered by the printed parent chain. Names and notes keep the numbering of the source. Where two headings read alike, the source gives them in different places. Values belong to the binder of their own block, whether it stands above or below them.
Columns and labels:
huNav1.7α = molecular target: T1, huNav1.7α (human, UniProt Q15858 1-1988); assay: binding FACS, HEKa cells
T1 construct: HEK cells expressing the α subunit alone; also called HEKa; HEK huNav1.7α
Procedure, shortened: (§1)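 FLAG3-tagged ISVD, 30 min, 4° C, FACS buffer (PBS/10% FBS/NaN₃); 1×10^5 cells/well; detection murine anti-Flag; PI 1 μg/mL live gate; washes between steps.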

huNav1.7α+β1 [1] = molecular target: T2, huNav1.7α+β1 (human, UniProt Q15858 1-1988; Q07699 19-218); assay: binding FACS, HEK293 cells
T2 construct: also called huNav1.7-beta1; HEKa/β1
Method: (§2) Binding of the ISVDs to cell-expressed Nav1.7α was detected via murine anti-Flag (Sigma, catalog #F1804). Briefly, cells were resuspended in FACS buffer (PBS, 10% FBS, NaN₃) and transferred to a 96-well V-bottom plate at 1×10^5 cells/well. Purified FLAG3-tagged ISVD was diluted in FACS buffer and added to the cells for 30 minutes at 4° C. […] Prior to the read-out, the samples were resuspended in 1 μg/mL propidium iodide (Sigma, catalog #P4170) to exclude dead cells. Between each step, the cells were centrifuged for 5 minutes at 200 grams and washed with 100 μL/well FACS buffer.
(§3) Crude periplasmic extracts containing ISVDs from phage display selections (as described above) were screened in FACS for binding to huNav1.7α but not to huNav1.5a. […] As used in Table 8, the drawings, and throughout the description, Navβ1, Navβ2, and Navβ3 are human homologs unless specifically identified otherwise.

huNav1.7α+β1 [2] = molecular target: T2, huNav1.7α+β1; assay: binding FACS, HEKa/β1 cells
Procedure, shortened: as §1

huNav1.3α = molecular target: T3, huNav1.3α (human, UniProt Q9NY46 1-2000); assay: binding FACS on stable cell lines
T3 construct: also called huNav1.3 (alpha subunit)
T3 sequence (Q9NY46 whole entry): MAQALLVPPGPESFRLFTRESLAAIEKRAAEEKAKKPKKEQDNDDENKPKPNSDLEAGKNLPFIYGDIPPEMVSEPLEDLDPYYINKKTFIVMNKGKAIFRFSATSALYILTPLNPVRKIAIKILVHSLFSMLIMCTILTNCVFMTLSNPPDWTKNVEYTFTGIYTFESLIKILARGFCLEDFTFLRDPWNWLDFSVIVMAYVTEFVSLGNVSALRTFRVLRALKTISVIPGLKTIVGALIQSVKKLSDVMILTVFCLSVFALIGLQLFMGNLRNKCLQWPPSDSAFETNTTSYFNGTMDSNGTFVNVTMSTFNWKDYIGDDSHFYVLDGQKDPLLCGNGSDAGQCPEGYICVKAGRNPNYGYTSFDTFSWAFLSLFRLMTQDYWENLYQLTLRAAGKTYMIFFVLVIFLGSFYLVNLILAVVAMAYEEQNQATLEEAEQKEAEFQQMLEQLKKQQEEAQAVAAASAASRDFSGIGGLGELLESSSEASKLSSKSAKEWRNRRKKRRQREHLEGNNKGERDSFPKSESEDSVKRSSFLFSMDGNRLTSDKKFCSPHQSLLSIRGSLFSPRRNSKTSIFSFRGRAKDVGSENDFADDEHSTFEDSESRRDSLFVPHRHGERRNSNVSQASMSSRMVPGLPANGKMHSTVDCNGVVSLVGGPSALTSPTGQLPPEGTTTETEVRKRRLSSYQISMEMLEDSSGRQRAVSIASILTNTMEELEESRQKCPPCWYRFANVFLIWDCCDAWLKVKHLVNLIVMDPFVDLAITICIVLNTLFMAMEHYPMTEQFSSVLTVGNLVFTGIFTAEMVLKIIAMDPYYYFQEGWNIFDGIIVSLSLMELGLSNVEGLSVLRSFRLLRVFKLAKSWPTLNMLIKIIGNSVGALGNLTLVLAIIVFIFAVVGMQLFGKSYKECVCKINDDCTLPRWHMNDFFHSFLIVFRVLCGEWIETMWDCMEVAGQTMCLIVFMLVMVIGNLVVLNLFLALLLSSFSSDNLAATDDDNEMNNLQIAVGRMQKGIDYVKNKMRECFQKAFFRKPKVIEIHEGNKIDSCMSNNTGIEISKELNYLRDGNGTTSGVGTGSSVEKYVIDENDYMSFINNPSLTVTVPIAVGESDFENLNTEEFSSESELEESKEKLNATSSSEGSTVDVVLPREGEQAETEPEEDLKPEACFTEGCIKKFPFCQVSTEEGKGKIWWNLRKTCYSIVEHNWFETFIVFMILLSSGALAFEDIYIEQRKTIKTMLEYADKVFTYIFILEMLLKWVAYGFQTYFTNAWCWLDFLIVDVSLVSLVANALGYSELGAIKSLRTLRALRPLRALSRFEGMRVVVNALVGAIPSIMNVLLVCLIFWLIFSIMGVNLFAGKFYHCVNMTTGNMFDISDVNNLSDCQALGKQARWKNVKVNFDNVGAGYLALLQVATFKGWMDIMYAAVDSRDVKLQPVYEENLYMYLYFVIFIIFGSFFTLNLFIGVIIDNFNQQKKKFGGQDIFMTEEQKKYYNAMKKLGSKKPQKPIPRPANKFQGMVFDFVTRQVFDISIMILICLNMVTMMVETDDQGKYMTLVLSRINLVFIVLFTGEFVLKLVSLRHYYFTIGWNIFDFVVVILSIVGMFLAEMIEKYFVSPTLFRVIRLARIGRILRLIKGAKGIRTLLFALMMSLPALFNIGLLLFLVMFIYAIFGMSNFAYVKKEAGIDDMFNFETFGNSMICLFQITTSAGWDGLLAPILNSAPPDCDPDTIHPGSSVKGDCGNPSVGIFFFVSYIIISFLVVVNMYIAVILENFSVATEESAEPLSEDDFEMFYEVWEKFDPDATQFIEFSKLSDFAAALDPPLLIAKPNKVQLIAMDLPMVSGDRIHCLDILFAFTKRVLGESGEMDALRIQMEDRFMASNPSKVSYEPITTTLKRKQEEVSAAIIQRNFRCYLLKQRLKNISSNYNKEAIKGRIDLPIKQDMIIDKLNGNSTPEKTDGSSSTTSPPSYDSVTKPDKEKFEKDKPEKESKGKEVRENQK

huNav1.4α = molecular target: T4, huNav1.4α (human, UniProt P35499 1-1836); assay: binding FACS on stable cell lines
T4 construct: also called huNav1.4 (alpha subunit)

huNav1.6α = molecular target: T5, huNav1.6α (human, UniProt Q9UQD0 1-1980); assay: binding FACS on stable cell lines
T5 construct: also called huNav1.6 (alpha subunit)
T5 sequence (Q9UQD0 whole entry): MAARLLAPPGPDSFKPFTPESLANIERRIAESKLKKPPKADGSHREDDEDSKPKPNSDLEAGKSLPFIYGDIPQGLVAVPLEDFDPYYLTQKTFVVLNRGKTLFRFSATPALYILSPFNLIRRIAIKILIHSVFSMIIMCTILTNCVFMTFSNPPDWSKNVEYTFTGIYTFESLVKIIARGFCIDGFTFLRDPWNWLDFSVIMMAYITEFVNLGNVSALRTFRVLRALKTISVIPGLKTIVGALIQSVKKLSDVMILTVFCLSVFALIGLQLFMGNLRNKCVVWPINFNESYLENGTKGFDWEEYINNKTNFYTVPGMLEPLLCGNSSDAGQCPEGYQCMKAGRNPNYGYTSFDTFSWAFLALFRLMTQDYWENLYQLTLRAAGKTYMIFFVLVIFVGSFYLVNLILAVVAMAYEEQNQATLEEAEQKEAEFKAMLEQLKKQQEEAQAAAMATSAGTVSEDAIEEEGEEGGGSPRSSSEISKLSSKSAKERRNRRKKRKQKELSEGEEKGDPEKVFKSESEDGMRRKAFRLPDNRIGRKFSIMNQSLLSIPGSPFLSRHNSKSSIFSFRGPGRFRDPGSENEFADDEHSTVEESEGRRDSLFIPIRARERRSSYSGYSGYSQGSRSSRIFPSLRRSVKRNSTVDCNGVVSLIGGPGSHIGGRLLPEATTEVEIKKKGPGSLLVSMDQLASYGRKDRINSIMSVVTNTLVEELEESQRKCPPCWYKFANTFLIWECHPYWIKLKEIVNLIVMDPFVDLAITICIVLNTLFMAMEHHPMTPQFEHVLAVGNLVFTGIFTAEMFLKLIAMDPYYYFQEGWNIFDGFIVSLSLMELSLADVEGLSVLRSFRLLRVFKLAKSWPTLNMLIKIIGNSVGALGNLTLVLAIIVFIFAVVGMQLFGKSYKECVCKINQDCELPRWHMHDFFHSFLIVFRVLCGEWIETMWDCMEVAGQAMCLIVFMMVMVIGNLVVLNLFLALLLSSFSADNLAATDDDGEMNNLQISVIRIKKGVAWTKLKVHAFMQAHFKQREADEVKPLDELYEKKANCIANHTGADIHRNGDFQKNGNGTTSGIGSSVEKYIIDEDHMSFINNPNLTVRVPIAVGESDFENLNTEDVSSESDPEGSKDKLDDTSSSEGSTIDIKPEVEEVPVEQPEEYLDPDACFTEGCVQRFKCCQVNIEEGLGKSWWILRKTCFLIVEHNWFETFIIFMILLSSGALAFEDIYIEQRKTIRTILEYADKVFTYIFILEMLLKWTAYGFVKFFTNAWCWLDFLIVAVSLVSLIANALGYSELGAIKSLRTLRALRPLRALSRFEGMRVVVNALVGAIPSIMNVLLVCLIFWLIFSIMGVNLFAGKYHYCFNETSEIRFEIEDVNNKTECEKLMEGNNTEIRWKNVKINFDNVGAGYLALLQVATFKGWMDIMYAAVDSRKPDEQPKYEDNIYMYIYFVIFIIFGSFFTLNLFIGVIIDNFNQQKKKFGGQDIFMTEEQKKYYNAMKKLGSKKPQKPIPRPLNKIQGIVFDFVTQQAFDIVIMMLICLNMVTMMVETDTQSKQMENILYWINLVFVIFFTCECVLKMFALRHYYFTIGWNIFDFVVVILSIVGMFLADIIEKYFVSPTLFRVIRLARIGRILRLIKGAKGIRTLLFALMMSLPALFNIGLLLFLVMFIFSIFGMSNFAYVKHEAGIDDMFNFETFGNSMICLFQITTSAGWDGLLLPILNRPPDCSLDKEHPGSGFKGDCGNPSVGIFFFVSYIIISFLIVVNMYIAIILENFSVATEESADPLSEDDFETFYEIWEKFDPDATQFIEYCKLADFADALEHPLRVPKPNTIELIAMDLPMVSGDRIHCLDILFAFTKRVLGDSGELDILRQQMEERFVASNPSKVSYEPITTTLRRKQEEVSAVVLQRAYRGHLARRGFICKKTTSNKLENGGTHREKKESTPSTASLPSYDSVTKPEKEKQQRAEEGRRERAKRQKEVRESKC

huNav1.8α = molecular target: T6, huNav1.8α (human, UniProt Q9Y5Y9 1-1956); assay: binding FACS on stable cell lines
T6 construct: also called huNav1.8 (alpha subunit)

huNav1.1α = huNav1.1α (human, UniProt P35498 1-2009); assay: binding FACS on stable cell lines
huNav1.2α = molecular target: T7, huNav1.2α (human, UniProt Q99250 1-2005); assay: binding FACS on stable cell lines
T7 construct: also called huNav1.2 (alpha subunit)

huNav1.7α+β1-β2-β3 [3] = molecular target: T8, huNav1.7α+β1-β2-β3 (human, UniProt Q15858 1-1988; Q07699 19-218; O60939 30-215; Q9NY72 23-215); assay: binding FACS, CHO FlpIn cells
T8 construct: 5N11S variant; also called huNav1.7-beta1-beta2-beta3; huNav1.7α+Navβ1-Navβ2-Navβ3
Method: as §2, §3

rhNav1.7α+β1-β2-β3 = molecular target: T9, rhNav1.7α+β1-β2-β3 (rhesus monkey α subunit with human β …); assay: binding FACS, CHO FlpIn cells
T9 construct: P2A cleaves it into α, β1, β2, β3; also called rhNav1.7-beta1-beta2-beta3
Method: as §2, §3

huNav1.7α+β1-β2-β3 [4] = molecular target: T8, huNav1.7α+β1-β2-β3; assay: binding FACS, HEK FlpIn cells
Method: as §2, §3

[5] = molecular target: T10, huNav157chimera14+β1-β2-β3 (human, UniProt Q07699 19-218; O60939 30-215; Q9NY72 23-215); assay: binding FACS, HEK FlpIn cells
T10 construct: HEK FlpIn line; also called huNav157 chimera 14-beta1-beta2-beta3; Nav157ch14-β1-β2-β3
Method: as §2, §3

huNav1.5α+β1-β2-β3 = molecular target: T11, huNav1.5α+β1-β2-β3 (human, UniProt Q14524 1-2016; A5A6L6 19-218; O60939 30-215; Q2KI11 23-215); assay: binding FACS, HEK FlpIn cells
T11 construct: in the cell P2A cleaves it into α, β1, β2, β3; also called huNav1.5-beta1-beta2-beta3
Method: as §2, §3

huNav1.7α+β1-β2-β3 [6] = molecular target: T8, huNav1.7α+β1-β2-β3; assay: binding FACS, HEK FlpIn cells; remark: listed apart in the source
[7] = molecular target: T12, huNav1.7(N146S, V194I, F276V, R277Q, E281V, V331M, E504D, D507E, S508N, N533S)-β1-β2-β3 (human, UniProt Q15858 1-1988; Q07699 19-218; O60939 30-215; Q9NY72 23-215); assay: FACS on transiently transfected HEK293T cells
T12 construct: Transiently on HEK293T cells; The text prints V1941 for V194I; also called chimeric variant of huNav1.7α with all DI huNav1.7α-rhNav1.7α polymorphisms
Method: as §2
FACS binding studies (as described above) were performed on HEK293T cells transiently transfected with a chimeric variant of huNav1.7α in which all the huNav1.7α-rhNav1.7α polymorphisms of DI are present (N146S, V1941, F276V, R277Q, E281V, V331M, E504D, D507E, S508N, N533S). Replacing the huNav1.7α DI sequence for that of rhNav1.7α is sufficient to abolish the binding of F0103262CO2, F0103265B04, F0103262B06, and F0103265A11 to huNav1.7α, recapitulating the absence of binding on rhNav1.7α (see FIGS. 21A-21B).

[8] = molecular target: T10, huNav157chimera14+β1-β2-β3; assay: binding FACS with purified FLAG3-HIS6 tagged ISVDs
Method: as §2, §3

rhNav1.7α = rhNav1.7α (rhesus monkey, UniProt Q15858 1-1988 (human entry)); assay: cell-based or functional assay
[9] = molecular target: T13, huNav1.7α (human Nav1.7 alpha subunit, expressed without β subunits) (human, UniProt Q15858 1-1988); assay: binding FACS, HEKa cells
T13 construct: also called HEK293 human Nav1.7α; HEKa Nav1.7α

[10] = molecular target: T13, huNav1.7α (human Nav1.7 alpha subunit, …); assay: binding FACS, HEKa cells; remark: listed apart in the source
[11] = molecular target: T14, huNav1.7α + β1 (human Nav1.7α co-expressed with Navβ1) (human, UniProt Q15858 1-1988; Q07699 19-218); assay: binding FACS, HEKa/β1 cells
T14 construct: also called HEK293 human Nav1.7α + β1; HEKa/β1 Nav1.7α

[12] = molecular target: T14, huNav1.7α + β1 (human Nav1.7α …); assay: binding FACS, HEKa/β1 cells; remark: listed apart in the source
[13] = molecular target: T15, huNav1.7α + β1-β2-β3 (human Nav1.7α co-expressed with Navβ1, Navβ2 and Navβ3) (human); assay: binding FACS, HEK FlpIn cells
T15 construct: also called huNav1.7-beta1-beta2-beta3

[14] = molecular target: T16, huNav157 chimera 14 + β1-β2-β3 (human); assay: binding FACS, HEK FlpIn cells
T16 construct: Chimera of huNav1.7α (extracellular loops and transmembrane helices) and huNav1.5α (intracellular loops); also called Nav157ch14-β1-β2-β3; huNav157 chimera 14-beta1-beta2-beta3

huNav157 chimera 14 [15] = molecular target: T17, huNav157 chimera 14 (human); assay: binding FACS, HEK FlpIn cells
T17 construct: Chimera without β subunits; also called Nav157ch14

[16] = molecular target: T16, huNav157 chimera 14 + β1-β2-β3; assay: binding FACS, HEK FlpIn cells; remark: listed apart in the source
huNav157 chimera 14 [17] = molecular target: T17, huNav157 chimera 14; assay: binding FACS, HEK FlpIn cells; remark: listed apart in the source
[18] = molecular target: T13, huNav1.7α (human Nav1.7 alpha subunit, …); assay: binding FACS, huNav1.7α without β; minus = weaker than reference

B3: F0103387G04 (parental)-FLAG-HIS6 (VHH)
VHH: EVQLVESGGGLAQPGGSLRLSCAASGPVFNINKMAWYRRAPGKQRELVASVTPTGSISYTDSVKGRFTISRDGSKRWSLQMNSLTPEDTAVYYCNALLQPDSYSNTRTYWGQGTLVTVSS
notes: also called F01033387G04
- 2-pulse IC50 [M], P1 (rhNav1.7α): 7e-06 M
- 2-pulse IC50 [M], P2 (rhNav1.7α): 3e-06 M
- binding result (huNav1.8α): no binding
- binding result (huNav1.5α+β1-β2-β3): no binding
- binding result [8]: binds

B5: F0103387G05 (parental)-FLAG-HIS6 (VHH)
VHH: EVQLVESGGGLVQAGGSLRLSCDASGRILRIGYMRWHRQGAGKQREFVARITDDSATDYADSVKGRFTISRDNAKNTVYLQMNNLNPEDTAVYYCEALVTASVRGGSIHSGTYWGRGTLVTVSS
- Bmax [9]: 100%
- EC50 [9]: 3.1 nM
- EC50 [10]: 3.1 nM
- EC50 [11]: 1.9 nM
- EC50 [12]: 1.9 nM
- EC50 [13]: 2.7 nM
- EC50 [14]: 3.6 nM
- Bmax (huNav157 chimera 14 [15]): 100%
- EC50 (huNav157 chimera 14 [15]): 2.8 nM
- EC50 [16]: 3.6 nM
- EC50 (huNav157 chimera 14 [17]): 2.8 nM

Now from value to binder, other results behind:

- binding result (huNav1.7α): no binding
- EC50 (huNav1.7α+β1 [1]): 8.4 nM
- Bmax relative to '535 (huNav1.7α+β1 [2]): 34%
- EC50 (huNav1.7α+β1 [2]): 11 nM
- binding result (huNav1.3α): no binding
- binding result (huNav1.4α): no binding
- binding result (huNav1.6α): no binding
- binding result (huNav1.8α): no binding
- binding result (huNav1.1α): no binding
- binding result (huNav1.2α): no binding
- EC50 (huNav1.7α+β1-β2-β3 [3]): 66 nM
- binding result (rhNav1.7α+β1-β2-β3): no binding
- EC50 (huNav1.7α+β1-β2-β3 [4]): 37 nM
- EC50 [5]: 34 nM
- EC50 (huNav1.7α+β1-β2-β3 [6]): 77 nM
- binding result [7]: no binding (tested: 1 µM)
B1: F0103265A11 (parental)-FLAG-HIS6 (VHH)
VHH: EVQLVESGGGLVQPGGSLRLSCAASGMLFNANTQGWYRQAPGKQRELVAFIFSGGYTNYVDSVKGRFTISRDNAKRTMYLQMNSLKPEDSAIYYCSLSRYLGQGTLVTVSS
notes: also called F01033265A11
- binding result (huNav1.5α+β1-β2-β3): no binding

- EC50 (huNav1.7α+β1 [1]): 59 nM
- binding result (huNav1.3α): no binding
- binding result (huNav1.4α): no binding
- binding result (huNav1.6α): no binding
- binding result (huNav1.8α): no binding
- binding result (huNav1.1α): no binding
- binding result (huNav1.2α): no binding
- EC50 (huNav1.7α+β1-β2-β3 [3]): 110 nM
- binding result (rhNav1.7α+β1-β2-β3): no binding
- EC50 (huNav1.7α+β1-β2-β3 [4]): 42 nM
- binding result [8]: binds
B2: F0103362B08 (parental)-FLAG-HIS6 (VHH)
VHH: EVQLVESGGGLVQAGGSLRLSCAASVRPFSTSAMGWFRQAPEKEREAVAGILWNGIVTYYADSVKGRFTISRDNAKNEVYLQMNKLKPEDTAVYYCALDRDYGGRSFSAYEYEYWGQGTLVTVSS
- binding result (huNav1.5α+β1-β2-β3): no binding

- EC50 (huNav1.7α+β1 [1]): 20 nM
- binding result (huNav1.3α): no binding
- binding result (huNav1.4α): no binding
- binding result (huNav1.6α): no binding
- binding result (huNav1.8α): no binding
- binding result (huNav1.1α): no binding
- binding result (huNav1.2α): no binding
- EC50 (huNav1.7α+β1-β2-β3 [3]): 19 nM
- binding result (rhNav1.7α+β1-β2-β3): no binding
- EC50 (huNav1.7α+β1-β2-β3 [4]): 25 nM
- EC50 [5]: 16 nM
- binding result [7]: no binding (tested: 1 µM)
B4: F0103262B06 (parental)-FLAG-HIS6 (VHH)
VHH: EVQLVESGGGLVQPGGSLRLSCAGSTRTFSTYAMGWFRQAPGREREFVAHINFSGSSTRYADSVKGRFTISRDNAKNMGYLQMNSLKPEDTAVYYCAARWVAGPPRYDYEYWGQGTLVTVSS
- binding result (huNav1.5α+β1-β2-β3): no binding

- Bmax [9]: 75%
- EC50 [9]: 8 nM
- EC50 [11]: 4 nM
- EC50 [14]: 4.7 nM
- Bmax (huNav157 chimera 14 [15]): 80%
- EC50 (huNav157 chimera 14 [15]): 12 nM
- EC50 fold change compared to reference [18]: -2 fold
B6: F010301647 (VHH)
VHH: B5 VHH with L11V, A14P, F47L, N84S, N86R, V92L, R116Q
notes: also called F0103387G05(L11V, A14P, F47L, N82bS, N83R, V89L, R105Q); F47L

From patent US20240002497A1 (Merck Sharp & Dohme, published 2024)
